Experimental data from paper PMC5882628, “Development of a Cell-Based Assay to Assess Binding of the proNGF Prodomain to Sortilin” (Cellular and Molecular Neurobiology, 2017).
Entries after “also recorded” stand apart in the source; their conditions may differ.

Columns and labels:
[1] = system: internalization-mutant sortilin; assay: GSTpro binding to HEK293 cells expressing internalization-mutant sortilin; assay type: cell-based, human; conditions: compared with wild type sortilin
Procedure: (§1) HEK 293 cells were grown in DMEM with 10% fetal bovine serum. They were transfected with plasmids either encoding wild type sortilin, or sortilin with a mutation that renders it endocytosis deficient, or an empty control vector according to manufacturer’s instructions using 20 µg lipofectamine (Thermo Fischer Scientific) with 8 µg DNA on […] per 6 cm, poly-lysine coated dish. The cells were initially plated into 24-well dishes after transfection. That intermediate step rendered more uniform cell numbers in the 96-well dishes that were used to run the actual assay. 24 h later, cells were split into black opaque-walled, clear-bottom 96 well dishes at 42000 cells in 80 µl medium/well. […]
(§2) The fixed cells were washed with PBS for 15 min, followed by two 15 min washes with PBS with 0.1% Triton X-100. […] Wells to be evaluated for blocking of the sortilin-GSTpro interaction by antibodies were only stained with an antibody against the pro domain of proNGF in 10% FBS at a dilution of 1:1500 (Millipore (N-term) clone EPI318Y, Rabbit Monoclonal Antibody Catalog Number: #04-1142). […]
The following day, wells were washed 3 × 15 min with PBS/0.1% Triton X-100. […] Cellular fluorescence was quantified using an array scanner and the “Neuronal Profiler” Bioapplication (Thermo Fisher Scientific) as described below.

[2] = Precipitation and sticking to culture dishes; reagent stability; assay type: physicochemical; conditions: GSTpro versus proNGF
Source text: This behavior led to more diffuse staining compared to GSTpro. […] Given the complications driven by the biophysical properties of proNGF, we pursued GSTpro as a source of the pro binding domain.
Due to reasons of stability of the proNGF protein and the specificity of binding, we recommend use of GSTpro in the assay, rather than recombinant proNGF. […] Although not formally tested by us, there may have been inconsistencies in the batches of proNGF protein used in the studies. As extracellular fluorescence could increase false positive cells by automated detection, proNGF was less reliable as a reagent in our assay (not shown). Both GSTpro and proNGF compete for binding to the sortilin receptor, it is likely that their binding sites are similar or at least overlap. Detection with GSTpro was more specific than with proNGF. […] The assay has the potential to use a tenfold lower concentration of GSTpro (5 nM, cf. Fig. 6v).

[3] = system: empty vector control-transfected cells; assay: GSTpro signal in empty vector control-transfected HEK293 cells; assay type: cell-based, human; conditions: Fig. 3a, c, d
Procedure: as §1, §2
The following day, wells were washed 3 × 15 min with PBS/0.1% Triton X-100. […] Cellular fluorescence was quantified using an array scanner and the “Neuronal Profiler” Bioapplication (Thermo Fisher Scientific) as described below. […]

sortilin = conditions: immobilized sortilin; ref Nykjaer et al. [2004]; read-out: affinity (immobilized sortilin); cited from earlier work
Source text: The assay was also used to screen for blocking of sortilin-GSTpro interaction with compound AF38469, which ...

B1: GSTpro: fusion of Glutathione S-transferase (GST) merged at the C-terminal of GST to the pro part (19–121) of human proNGF (protein)
chain: EPHSESNVPAGHTIPQAHWTKLQHSLDTALRRARSAPAAAIAARVAGQTRNITVDPRLFKKRRLRSPRVLFSTQPPREAADTQDLDFEVGGAAPFNRTHRSKR
modifications: left off: GST, N-terminal, kept
notes: fusion of Glutathione S-transferase (GST) merged at the C-terminal of GST to the pro part (19–121) of human proNGF
GSTpro signal in internalization-mutant versus wt sortilin cells (in words) [1]: stronger GSTpro signal than wild type sortilin; also recorded: slightly higher signal
stability compared to proNGF (in words) [2]: more stable than proNGF
GSTpro binding signal in empty vector cells (in words) [3]: only very low signal
Kd (sortilin): 8 nM
